# What was measured:
# [1] = biological target: aggregated Aβ42 (heterogeneous Aβ 42 aggregate mixture); assay: competition ELISA; FIG 5A; competition with HBP biotin
# [2] = biological target: aggregated Aβ42 (heterogeneous Aβ 42 aggregate mixture); assay: competition ELISA; FIG 20A
# [3] = biological target: aggregated Aβ42 (heterogeneous Aβ 42 aggregate mixture); assay: competition ELISA; FIG 20B
# [4] = biological target: aggregated Aβ42 (heterogeneous Aβ 42 aggregate mixture); assay: competition ELISA; FIG 5B; competition with HBP biotin
# Sequence of aggregated Aβ42 (heterogeneous Aβ 42 aggregate mixture) (P05067 672-713): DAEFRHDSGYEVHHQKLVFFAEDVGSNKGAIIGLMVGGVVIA
Binder,IC50 [1] [µg/mL],IC50 [2] [µg/mL],IC50 [3] [µg/mL],IC50 [4] [µg/mL]
"h2731 (antibody, V domains shown) VH: EVQLLESGGGLVQPGGSLRLSCAASGFTFSNYGMSWVRQAPGKGLEWVASIRSGSGRTYYSDNVKGRFTISRDNSKNTLYLQMNSLRAEDTAVYYCVRYDHYSGSSDYWGQGTLVTVSS VL: DVVMTQSPLSLPVTLGEPASISCKSSQSLLDYDGKTYLNWLLQKPGQSPQRLIYRVTNRDTGVPDRFSGSGSGTDFTLKISRVEAEDVGVYYCWQGTHFPRSFGQGTKVEIK",4.76,5,–,–
"h2726 (antibody, V domains shown) VH: EVQLLESGGGLVQPGGSLRLSCAASGFTFSNYGMSWVRQAPGKGLEWVASIRSGSGRTYYSDNVKGRFTISRDNSKNTLYLQMNSLRAEDTAVYYCVRYDHYSGSSDYWGQGTLVTVSS VL: DVVMTQSPLSLPVTPGEPASISCKSSQSLLDYDGKTYLNWLLQKPGQSPQRLIYKVSNRDSGVPDRFSGSGSGTDFTLKISRVEAEDVGVYYCWQGTHFPRTFGQGTKVEIK",–,–,9,8.41
"h2931 (antibody, V domains shown) VH: EVQLLESGGGLVQPGGSLRLSCAASGFTFSNFGMSWVRQAPGKGLEWVASVRSGSGRTYYSDNVKGRFTISRDNSKNTLYLQMNSLRAEDTAVYYCVRYDHYTGTSDYWGQGTLVTVSS VL: DVVMTQSPLSLPVTLGEPASISCKSSQSLLDYDGKTYLNWLLQKPGQSPQRLIYRVTNRDTGVPDRFSGSGSGTDFTLKISRVEAEDVGVYYCWQGTHFPRSFGQGTKVEIK",6.27,–,–,–
"h2831 (antibody, V domains shown) VH: EVQLLESGGGLVQPGGSLRLSCAASGFTFSNFGMSWVRQAPGKGLEWVASVRSGSGRTYYSDNVKGRFTISRDNSKNTLYLQMNSLRAEDTAVYYCVRYDHYSGTSDYWGQGTLVTVSS VL: DVVMTQSPLSLPVTLGEPASISCKSSQSLLDYDGKTYLNWLLQKPGQSPQRLIYRVTNRDTGVPDRFSGSGSGTDFTLKISRVEAEDVGVYYCWQGTHFPRSFGQGTKVEIK",–,–,9.9,9.02

# — US20230331828A1 (published 2023)
